Several values for one entry are separate records, joined by “and”; a condition that tells them apart may be missing. Equal values may be shown once.
Tests used:
[1] = target: LY6A (Ly6a, C57BL/6J mouse) (mouse (C57BL/6J)) (UniProt P05533); assay: AAV library bound to Ly6a-transfected HEK293T cells, NGS
[2] = target: LY6C1 (Ly6c1, C57BL/6J mouse, splice variant 1) (mouse (C57BL/6J)) (UniProt P0CW02); assay: AAV library bound to Ly6c1-transfected HEK293T cells, NGS
UniProt P0CW02, sequence (P0CW02 27-109 limits assumed, change not shown): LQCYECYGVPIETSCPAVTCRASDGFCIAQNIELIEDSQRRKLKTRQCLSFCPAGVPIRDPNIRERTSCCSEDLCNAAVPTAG

UniProt P05533, sequence (P05533 27-112 limits assumed): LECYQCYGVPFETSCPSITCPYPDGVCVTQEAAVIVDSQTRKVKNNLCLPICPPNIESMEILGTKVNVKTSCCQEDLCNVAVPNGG

Row | Substance | fold enrichment (log2) [1] [log2] | fold enrichment (log2) [2]
1 | AAV9 K449R 7-mer variant HTQGYST | -3.32 | 2.26 log2
2 | AAV9 K449R 7-mer variant SIYLGSQ | -0.76 | 4.47 log2
3 | AAV9 K449R 7-mer variant SYIGASS | -1.01 | 5.08 log2
4 | AAV9 K449R 7-mer variant LAHTYSS | 0.04 | 3.97 log2
5 | AAV9 K449R 7-mer variant ESTRPFK | 2.87 | 0.28 log2
6 | AAV9 K449R 7-mer variant LNRGSST | 1.72 | 4.15 log2
7 | AAV9 K449R 7-mer variant IRVGYST | -3.55 | 3.46 log2
8 | AAV9 K449R 7-mer variant TKYMHSS | 1.35 | 4.24 log2
9 | AAV9 K449R 7-mer variant NDQRPFL | 3.27 | -4.33 log2
10 | AAV9 K449R 7-mer variant PPSFKNV | 3.69 | -4.33 log2
11 | AAV9 K449R 7-mer variant FLPGYSS | -2.29 | 2.54 log2
12 | AAV9 K449R 7-mer variant NGYKGST | 1.24 | 4.98 log2
13 | AAV9 K449R 7-mer variant MRTLMSS | -0.52 | 3.85 log2
14 | AAV9 K449R 7-mer variant AISAPFK | 2.56 | -0.06 log2
15 | AAV9 K449R 7-mer variant ESSKPFR | 3.15 | 1.28 log2
16 | AAV9 K449R 7-mer variant SEGRPFI | 1.85 | -3.55 log2
17 | AAV9 K449R 7-mer variant GGRGLSS | 2 | 4.9 log2
18 | AAV9 K449R 7-mer variant TQQGYSS | -0.92 | 5.8 log2
19 | AAV9 K449R 7-mer variant DKAWGST | 0.19 | 3.56 log2

Row | Substance | fold enrichment (log2) [1] [log2] | fold enrichment (log2) [2]
20 | AAV9 K449R 7-mer variant TKSGYST | 0.68 | 5.71 log2
21 | AAV9 K449R 7-mer variant QHFGQSS | -0.37 | 4.68 log2
22 | AAV9 K449R 7-mer variant DRIHGYS | -0.11 | 4.34 log2
23 | AAV9 K449R 7-mer variant LWAKGST | 1.42 | 3.9 log2
24 | AAV9 K449R 7-mer variant ALAKPFI | 1.91 | -0.19 log2
25 | AAV9 K449R 7-mer variant TRFGAST | 0 | 4.32 log2
26 | AAV9 K449R 7-mer variant GNENFSS | -1.43 | 3.45 log2
27 | AAV9 K449R 7-mer variant IDRGYSV | -1.04 | 5.3 log2
28 | AAV9 K449R 7-mer variant SKTGYST | -3.55 | 4.43 log2
29 | AAV9 K449R 7-mer variant KDKFKDI | 3.38 | -2.08 log2
30 | AAV9 K449R 7-mer variant VYPGYST | -3.32 | 2.21 log2
31 | AAV9 K449R 7-mer variant TTMKPFN | 2.95 | -3.74 log2
32 | AAV9 K449R 7-mer variant SQKTPFL | 3.81 | -3.55 log2
33 | AAV9 K449R 7-mer variant HKTHYSS | 0.86 | 3.24 log2
34 | AAV9 K449R 7-mer variant TEKWTSS | 0.98 | 4.43 log2
35 | AAV9 K449R 7-mer variant GKTGYST | -3.32 | 2.93 log2
36 | AAV9 K449R 7-mer variant NLKRPFA | 2.8 | 0.85 log2
37 | AAV9 K449R 7-mer variant NYTGYSS |  | 4.83 log2 and 4.44 log2

Source: patent US20220143214A1
